Measured values as given in the RNAGym collection of RNA variant scans (doi:10.7554/elife.80360).

B1: Twister Ribozyme (parent)
chain: AACACUGCCAAUGCCGGUCCCAAGCCCGGAUAAAAGUGGAGGGGGCGG

Variants of: B1
Assay: self-cleavage, relative activity (ratio to wild type); higher = more cleavage; co-transcriptional

Variant | self-cleavage
AACACGGCCAAUGCCGGUCGCAAGCCCGGAUAAAAGUGGAGGGGGCGG | 0.0753
AACACUGCCAAUGCCGGUCCCAAGCCCGGGUAAAAGUUGAGGGGGCGG | 0.771
AACACUGCCAAUGCCGGUCGCAAGCCCGGAUAAAAUUGGAGGGGGCGG | 0.0382
AACACUGCCAAUACCGGUCCCAAGCCCGGAUAAAAGUGAAGGGGGCGG | 0.202
AACACUGCCAAUGCCGGUCCCACGCCCGGAUAAAAGGGGAGGGGGCGG | 0.0666
AACACUGCCAAUGCCGGUCCCAAGCCUGGAUAAAUGUGGAGGGGGCGG | 0.775
AACACUGUCAAUGCCGGUCCCAAACCCGGAUAAAAGUGGAGGGGGCGG | 0.772
AGCACUGCCAAUGCCGGUCGCAAGCCCGGAUAAAAGUGGAGGGGGCGG | 0.0997
AACACUGCCAAUGCUGGUCCCAAGCCCGGAUAAAAGUGGAGGGGGAGG | 0.944
AACACUGCCAAUGCCGGUCCUAAGCCCGGAUAAAAUUGGAGGGGGCGG | 0.0467
AACACUGACAAUGCCGGUCCCAAGCCCGGAUAAAACUGGAGGGGGCGG | 0.145
AACACUGUCUAUGCCGGUCCCAAGCCCGGAUAAAAGUGGAGGGGGCGG | 0.582
AACACUGCGAAUGCCGGUCCCAGGCCCGGAUAAAAGUGGAGGGGGCGG | 0.0809
AACACUGCGAAUGCCGGUCCCAUGCCCGGAUAAAAGUGGAGGGGGCGG | 0.0839
AACACUGCCAAUGCCGGUCCCAAGCCCGGAUAAAAGUGGAGGCGGCGU | 0.138
AACACUGCCAAUGCCGGUCCUAUGCCCGGAUAAAAGUGGAGGGGGCGG | 0.0638
AACACUGCCAGUGCCGGUCCCAAGCCCGGAUAAAAAUGGAGGGGGCGG | 0.458
AACACUGCCAAUGCCGGUCCCCAGCCCGGAGAAAAGUGGAGGGGGCGG | 0.987
AACACUGCCAAUGCCGGUCCCAAGCCCGGAUGAUAGUGGAGGGGGCGG | 0.85
AACACUGCCAAUGCCGGUCCCAAACCCGGAUAAAAGAGGAGGGGGCGG | 0.0684
AACACUGCCAAUGCCUGUCCCAAGGCCGGAUAAAAGUGGAGGGGGCGG | 0.154
AACACUGCCAAUGCCGGUCCCAAGCCCGGAGAAAAGUUGAGGGGGCGG | 0.778

Variant | self-cleavage
AACACUGCCAAUGCCGGUCGCAAGCCCGGAUAAAUGUGGAGGGGGCGG | 0.182
AACACUGCCAAUGCCGGUCCCCAGCCCGGAUAAAAGUGGAGGUGGCGG | 0.273
AACACUGCCCAUGCCGGUCCCAAGCCCAGAUAAAAGUGGAGGGGGCGG | 0.841
AGCACUGCCAAUGCCGGUCCCAAGCCCGGAUAAAAUUGGAGGGGGCGG | 0.0889
AACACUGCGAAUGUCGGUCCCAAGCCCGGAUAAAAGUGGAGGGGGCGG | 0.624
AACACUGCCAAUGCCGGUCCCAAGCCCGGAUAAAAGUGGAGGGGACGG | 0.939
AACACUGCCAAUGUCGGUCCCAAGCCCGGAUAAAAGUGGAGGGGGGGG | 1.04
AACACUACCAAUGCCGGUCCCAAGCCCGGAUAAAAGGGGAGGGGGCGG | 0.162
AACACUGCCAAUGCCGGCCCCAAGCCCCGAUAAAAGUGGAGGGGGCGG | 0.124
AACACUGCCAAGGCCGGUCCCAAGCCCGGAUAGAAGUGGAGGGGGCGG | 0.809
AACACUGCCAUUGCCGGUCCCAAGCCCGAAUAAAAGUGGAGGGGGCGG | 1.02
AACACUGCCACUGCCGGUCCCAAGUCCGGAUAAAAGUGGAGGGGGCGG | 0.733
AACACUGCCAAUGCCUGUCCCAAGCCCGGAUAAAAGUGGAGGGGUCGG | 0.819
AGUACUGCCAAUGCCGGUCCCAAGCCCGGAUAAAAGUGGAGGGGGCGG | 0.0609
AACACUGCAAAUGCCGGUCCCAAGCCCGGAUAAGAGUGGAGGGGGCGG | 0.501
AACAAUGCCAAUGCCGGUCCCAAGCCCGGAUAAAAGUGGAGGGGGCGG | 0.66
AACACUGCCAAUGCCUGUCCCAAGCCAGGAUAAAAGUGGAGGGGGCGG | 0.908
AACACUGCCAAUGCCGGUCCCAAGCCCGGAUAAAACUGUAGGGGGCGG | 0.128
AACACUGCCAAUGCUGGUCCCAAGCCCGGAUAAAAGUGGAGCGGGCGG | 0.296
AACACUGCCAAUGCCGGUCCCAAACCCGGAUAAAAGUGGACGGGGCGG | 0.0854
AUCACUGCCAGUGCCGGUCCCAAGCCCGGAUAAAAGUGGAGGGGGCGG | 0.586
AACACUGCCAUUGCCGGUCCCAAGCCCGGUUAAAAGUGGAGGGGGCGG | 1.01

Variant | self-cleavage
AACACUGCCAAUGCCGUUCCCAAGCCCGGAUAAAAGUGGAGGGGGCGA | 0.316
AACACUGCCAAUGCCGGUUCCAAGCCCGGAUAAAAUUGGAGGGGGCGG | 0.127
AACACUGCCAAUGCCGGUCCCAAGCCCGGGUAAAAGUGGAGGCGGCGG | 0.225
AACACUGCCAAUGCCGGUCCCAAGCCCGGGUGAAAGUGGAGGGGGCGG | 1.02
AACACUGCCAAUGCCGGUCCCAAGCCCGGAUAAAAUUGGAGGGGGCCG | 0.198
AACACGGCCAAUGCCGGUCCCAAGCCCGGAUAAAAGUGGACGGGGCGG | 0.092
AACACUGCCAAUGCCGGUCCCAAGCGCGGAUAAAAGGGGAGGGGGCGG | 0.115
AACCCUGCCAAUGCCGGUCCCAAGCCCGUAUAAAAGUGGAGGGGGCGG | 0.145
AACACUGCCAAUUCCGGUCCCAAGCCCGGAUAAAAGUGGAGGAGGCGG | 0.143
AACACUGCCAAUGCCGGUCCCAAGCUCGGAUAAAAGUGGAGGGGCCGG | 0.0973
AACACUGCCAAUGCCGGUCCCAAGCCCGGAAAAAAGUGGAGGCGGCGG | 0.168
AACACUGCCAAGGCCGGUCCCAACCCCGGAUAAAAGUGGAGGGGGCGG | 0.0924
AACACUGCCAAUGCCGGUCCCAAGCCCGGAUAAAGAUGGAGGGGGCGG | 0.718
AACACUGCCAAUGCCGGUCCAAAGCCCGGAUAAAAGAGGAGGGGGCGG | 0.105
GACACUGCCAAUGCCGGUCCCAAGCCCGGAUAACAGUGGAGGGGGCGG | 0.186
AAUACUACCAAUGCCGGUCCCAAGCCCGGAUAAAAGUGGAGGGGGCGG | 0.0905
AACACUGCCAAUGCCGUUCCCAAGCCCGGAUAAAAGUGGCGGGGGCGG | 0.123
AACACUGGCAAUGCCGGUCCCAAGCCCGGAUUAAAGUGGAGGGGGCGG | 0.322
AACACUGCCAAUGCGGGUCCCAAGCCCGGAUAAAAGUGGAUGGGGCGG | 0.0559
AACACUGCCAAUGCCGGUCCCAAGCCCUGAUAAAAGUGGAGGGGGCGC | 0.921
AACACUGCCAAUGCCGGUCCCAAACCCGGAUAAAAGUGGAGGAGGCGG | 0.102
AACACUGCCAAUGCCGGUCCCAAGCCGGGAUAAAAGUGGAGGGGUCGG | 0.0905

Variant | self-cleavage
AAGACUGCCAAUGCCGGUCCCAAGCCCGGAUAAAAGUGGAGGGGGCAG | 0.275
CACACUGCCAAUGCCGGUCCCAAGCCCGGAUAAAAGUGUAGGGGGCGG | 0.129
AACACAGCCAAUGCCGGUCACAAGCCCGGAUAAAAGUGGAGGGGGCGG | 0.0593
AACACUGCCUAUGCCGGUCCCAAGCCCGGAUAAAAGUGGAGGGGGCCG | 0.596
AACACUGCCAAUGCCGGUCCCAAGUCCGGAUAAAAGUGGAGGGAGCGG | 0.811
AACACUGCCAAUGCCGUUCCCAAGCCCGGAGAAAAGUGGAGGGGGCGG | 0.339
AACACUGCCAAUGCCAGUCCCAAGCCCGGAUAAAAGUGGAGGGGGCGG | 1.03
AACACUGCCAAUGCCGGUCCCAGGCCUGGAUAAAAGUGGAGGGGGCGG | 0.14
AACACUGCCAAUGCCGGUGCCAAGCCCGGAUAAAAGUGGAGGGGGCGA | 0.167
AACACUGCCAAUGACGGUCCCAAGCCCGGAUAAAUGUGGAGGGGGCGG | 0.789
UACACUUCCAAUGCCGGUCCCAAGCCCGGAUAAAAGUGGAGGGGGCGG | 0.059
AACACUGCCAAUGCCAGUCCCAAGCCCGGAUAAAAGUGGAGGGAGCGG | 0.928
AAUACUGCCAAUGCCGGUCCCAAGCCCGGAUAAAAGUGGAGAGGGCGG | 0.0772
AACACUGCCAAUGCCGGUCCCAAGCCCGGAUAAAAGUGGAGGGCGGGG | 0.254
AACACUGCCAAUGCCGGUCCCAAGCCCGGGUAAACGUGGAGGGGGCGG | 0.792
AACACUGUCAAUGCCGGUCCCAAGCCCGGAUAAAAGUGGAGGGGGCAG | 0.43
AACACUGCCAGUGCCGGUCCCAAGCCCGGAUAAAAGUGGCGGGGGCGG | 0.214
AACACUUCCAAUGCCGGUCCCAAGUCCGGAUAAAAGUGGAGGGGGCGG | 0.302
AACACUGCCAAUGCCGGUCCCAAGCCCGGAUCAAAGUGGGGGGGGCGG | 0.134
AACACUGCCAAUGCCGGUCCCAAGCUCGGAUAAAAGUGGAGGAGGCGG | 0.125
AACACUGCUGAUGCCGGUCCCAAGCCCGGAUAAAAGUGGAGGGGGCGG | 0.872
AACACUGCCAAUGCCGGUCCCAAGUCCGGAUAAAAGUGGAGGAGGCGG | 0.151

Variant | self-cleavage
AACACUGCCAAUGCGGGUCCCAAGCCCGGAUAAAAGGGGAGGGGGCGG | 0.143
GACACUGCCAAUGCCGGUCCCUAGCCCGGAUAAAAGUGGAGGGGGCGG | 0.255
AACACUGCCAAUGCCGGUCCCAAGCCCGGAUAAAAGUGGAGUGGGCGA | 0.25
AACACUGCCAAUGCCGGUCCCAAGCCCGGAUGAAAGUGGAGGGGGCGC | 0.976
AACACUGCCAAUUCUGGUCCCAAGCCCGGAUAAAAGUGGAGGGGGCGG | 0.317
AACACCGCCAAUGCAGGUCCCAAGCCCGGAUAAAAGUGGAGGGGGCGG | 0.169
AACACUGGCAAAGCCGGUCCCAAGCCCGGAUAAAAGUGGAGGGGGCGG | 0.609
AACUCUGCCAAUGCCGGUCCCAUGCCCGGAUAAAAGUGGAGGGGGCGG | 0.0527
AACACUGCCAAUGCCGGUCCCAAGGCCUGAUAAAAGUGGAGGGGGCGG | 0.259
AACACUGACAAUGCUGGUCCCAAGCCCGGAUAAAAGUGGAGGGGGCGG | 0.365
AACACUGCCGAUCCCGGUCCCAAGCCCGGAUAAAAGUGGAGGGGGCGG | 0.835
AACAGUGCCAAUGCCGGUCCCAAGUCCGGAUAAAAGUGGAGGGGGCGG | 0.411
AACACUGCCAUUGCCGGUCCCAAGCGCGGAUAAAAGUGGAGGGGGCGG | 0.31
AACACUGCCAAUGCCGGUCCCAAGACCGGAUAAAAGUAGAGGGGGCGG | 0.0977
AACACUGCCAAUGCCGGUCCCAAGCCCGGAGAAAAGUGGAUGGGGCGG | 0.763
AAGACUGCCAAUGCCGGUCCCAAGCCCGGAUAAAAAUGGAGGGGGCGG | 0.124
AACACUGCCAAUGUCGGUCCCAAGCCCGGAUAAAAGUGGAGUGGGCGG | 0.486
AACACUGCCAAUGCCGGUCCCAAGCCCAGAUAAAAGUGGAGCGGGCGG | 0.272
AACACUGCGAAUGCCGGACCCAAGCCCGGAUAAAAGUGGAGGGGGCGG | 0.108
AACGCUGCCAAUGCCGGUCCCAAGCCCGGAUAAAAGUGGACGGGGCGG | 0.181
